Results published in CN111494645A (UNIV CHINA PHARMA, dated 2020).

Legend:
[1] = biological target: T1, 人DLL4抗原 (human, UniProt Q9NR61 27-524, limits assumed); assay: ELISA, DLL4 antigen coated at 1 μg/mL, antibody titrated 0-1000 nM, HRP secondary, OD450-OD630
T1 construct: also called Delta like 4

[2] = biological target: T1, 人DLL4抗原; assay: ELISA, DLL4 antigen coated at 1 μg/mL, conjugate titrated 0-1000 nM, HRP secondary, OD450-OD630

T1 sequence (Q9NR61 27-524 limits assumed): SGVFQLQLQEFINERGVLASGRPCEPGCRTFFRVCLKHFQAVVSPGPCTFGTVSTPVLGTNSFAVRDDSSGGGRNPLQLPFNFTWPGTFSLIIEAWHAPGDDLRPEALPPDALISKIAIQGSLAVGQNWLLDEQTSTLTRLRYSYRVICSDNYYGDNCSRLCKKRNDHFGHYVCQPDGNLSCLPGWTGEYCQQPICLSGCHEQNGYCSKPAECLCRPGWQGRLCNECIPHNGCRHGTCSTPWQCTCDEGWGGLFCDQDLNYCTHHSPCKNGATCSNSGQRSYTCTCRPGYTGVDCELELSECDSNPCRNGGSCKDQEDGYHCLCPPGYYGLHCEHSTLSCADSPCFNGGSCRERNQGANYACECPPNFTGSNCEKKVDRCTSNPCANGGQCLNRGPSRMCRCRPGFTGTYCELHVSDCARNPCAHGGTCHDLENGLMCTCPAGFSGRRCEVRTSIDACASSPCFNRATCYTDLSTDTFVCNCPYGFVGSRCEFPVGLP

EC50 [1] [nM]	EC50 [2] [nM]	Binder
49.2	–	抗人DLL4人源化抗体H3L2 (antibody, IgG1 humanized antibody; also called 裸抗) heavy: not shown light: EIVITQSPDFQSVTPKEKVTITCSVSSSISSSYLHWYQQKPDQSPKPWIYGTSNLASGVPSRFSGSGSGTDYTLTINSLEAEDAATYYCQQWSSSPLTFGQGTKLEIKVDTVAAPSVFIFPPSDEQLKSGTASVVCLLNNFYPREAKVQWKVDNALQSGNSQESVTEQDSKDSTYSLSSTLTLSKADYEKHKVYACEVTHQGLSSPVTKSFNRGEC
–	42.6	抗人DLL4人源化抗体THL4与美登素生物碱DM1的偶联物HLmD4 (THL4-mpeo-DM1) (antibody, human IgG1, kappa, DAR 3.96, DM1 coupled through the BMPEO linker (mpeo-DM1) to the engineered Cys at light chain position 207 (V207C); DM1 coupled through the BMPEO linker (mpeo-DM1) to the engineered Cys at heavy chain position 121 (K121C), Antibody-drug conjugate of the IgG1 antibody THL4 (H3L2 with light chain V207C and heavy chain K121C) with DM1; average DAR 3.96 by HPLC; also called 抗体药物偶联物HLmD4) heavy: not shown light: EIVITQSPDFQSVTPKEKVTITCSVSSSISSSYLHWYQQKPDQSPKPWIYGTSNLASGVPSRFSGSGSGTDYTLTINSLEAEDAATYYCQQWSSSPLTFGQGTKLEIKVDTVAAPSVFIFPPSDEQLKSGTASVVCLLNNFYPREAKVQWKVDNALQSGNSQESVTEQDSKDSTYSLSSTLTLSKADYEKHKVYACEVTHQGLSSPCTKSFNRGEC
